Test results from PMC11124013, “Substrate Affinity Is Not Crucial for Therapeutic L-Asparaginases: Antileukemic Activity of Novel Bacterial Enzymes” (Molecules, 2024).

What was measured:
purified protein [1] = substrate: NC(=O)C[C@H](N)C(=O)O; assay: purified protein; details: PBS pH 7.4, 37 °C
Nessler ammonia assay [2] = substrate: NC(=O)C[C@H](N)C(=O)O; assay: Nessler ammonia assay; type: biochemical, Rhizobium etli; details: PBS pH 7.4, 37 °C
Source text: Nessler ammonia assay on ReAV

Nessler ammonia assay [3] = substrate: NC(=O)C[C@H](N)C(=O)O; assay: Nessler ammonia assay; type: biochemical, Escherichia coli; details: PBS pH 7.4, 37 °C
Source text: Nessler ammonia assay on EcAIII

purified protein [4] = substrate: COC(=O)[C@H](Cc1ccccc1)NC(=O)C[C@H](N)C(=O)O; assay: purified protein; type: biochemical, Escherichia coli; details: PBS pH 7.4, 37 °C, 600 µM α-ketoglutarate, 190 µM NADH
[5] = substrate: NC(=O)C[C@H](N)C(=O)O; assay: ITC single-injection method; type: biochemical, Escherichia coli; details: PBS pH 7.4, 37 °C
Source text: ITC single-injection method on EcAII

B1: ReAIV (Rhizobium etli CFN 42) (protein)
chain: MTNPVTVEVTRGLLVESRHRGAVAVVDGDGKLFFSLGDIDTAVFPRSACKAMQALPLVESGAADAYGFGDKELALACASHNGEEEHVALAASMLSRAGRNVEALECGAHWSMNQKVLIQQARSLDAPTALHNNCSGKHAGFICACCHRDIDPKGYVGYEHPLQVEIRAVMERLTGAVLGAESCGTDGCSIPTYAMPLRNLAHGFARMATGTGLEPLRAKASRRLIEACMAEPFYVAGSGRACTKLMQIAPGRIFVKTGAEGVFCAAIPEKGIGISLKSEDGATRAAEAMVAATLARFFETEETVHAALMAFAAMPMRNWNGIHVGDIRATSVFSA
Work on B1 yielded a Km (purified protein [1]) of 7.16 ± 2.03 mM, a kcat (purified protein [1]) of 9.98 s⁻¹ and a kcat/Km (purified protein [1]) of 1390 M⁻¹ s⁻¹.

B2: ReAV (Rhizobium etli CFN 42) (protein)
chain: MTPSEDFVVTDRGGIVENSHRVHAAVVDAKGRLLYALGNPTRMTLARSAAKPAQALAILETEGVAGYGFDDADIALMCASHSSEDRHIARTRAMLSKIKAEEADLRCGGHPSLSEMVNRSWIKQDFIPTAVCSNCSGKHVGMLAGARAIGAGTDGYHLPDHPMQGRVKRTVAELCDLDAGDVEWGTDGCNLPTPAFPLDRLGRIYAKLASAADGSDAGEGQSTRCAALAHIFRAMARHPEMVAGEGRYCTMLMRAFDGALVGKLGADASYAIGVRASDATRQLGTDGALGISVKIEDGNLEMLYAVVTELLERLGIGSPDVRSQLASFHHPQRVNTMGVTTGGVSFPFKLRGSKSNVDDPRLAAVAR
notes: gene in pET151D-TOPO, 6xHis-tagged, expressed in E. coli BL21 Gold (DE3); homodimer, Zn in active site
Protein B2 has a Km (Nessler ammonia assay [2]) of 24.81 ± 3.22 mM, a kcat (Nessler ammonia assay [2]) of 28.5 ± 1.6 s⁻¹ and a kcat/Km (Nessler ammonia assay [2]) of 1150 ± 210 M⁻¹ s⁻¹.

B3: EcAIII (Escherichia coli K-12) (protein)
chain 1: GKAVIAIHGGAGAISRAQMSLQQELRYIEALSAIVETGQKMLEAGESALDVVTEAVRLLEECPLFNAGIGAVFTRDETHELDACVMDGNTLKAGAVAGVSHLRNPVLAARLVMEQSPHVMMIGEGAENFAFARGMERVSPEIFSTSLRYEQLLAARKEGATVLDHSGAPLDEKQKMG
chain 2: TVGAVALDLDGNLAAATSTGGMTNKLPGRVGDSPLVGAGCYANNASVAVSCTGTGEVFIRALAAYDIAALMDYGGLSLAEACERVVMEKLPALGGSGGLIAIDHEGNVALPFNTEGMYRAWGYAGDTPTTGIYREKGDTVATQ
notes: synthetic gene, N-terminal 6xHis-tag (pET28a or pMSCG92), expressed in E. coli BL21 Gold (DE3); precursor self-matures into alpha and beta subunits, (alpha-beta)2 heterotetramer
B3 was tested, and the Km (Nessler ammonia assay [3]) was 17.66 ± 1.87 mM, the kcat (Nessler ammonia assay [3]) was 5.77 ± 0.19 s⁻¹ and the kcat/Km (Nessler ammonia assay [3]) was 330 ± 100 M⁻¹ s⁻¹. The Km (purified protein [4]) was 3.57 ± 0.58 mM, the kcat (purified protein [4]) was 0.112 ± 0.007 s⁻¹ and the kcat/Km (purified protein [4]) was 31 ± 7 M⁻¹ s⁻¹.

B4: EcAII (Escherichia coli K-12) (protein)
chain: LPNITILATGGTIAGGGDSATKSNYTVGKVGVENLVNAVPQLKDIANVKGEQVVNIGSQDMNDNVWLTLAKKINTDCDKTDGFVITHGTDTMEETAYFLDLTVKCDKPVVMVGAMRPSTSMSADGPFNLYNAVVTAADKASANRGVLVVMNDTVLDGRDVTKTNTTDVATFKSVNYGPLGYIHNGKIDYQRTPARKHTSDTPFDVSKLNELPKVGIVYNYANASDLPAKALVDAGYDGIVSAGVGNGNLYKSVFDTLATAAKTGTAVVRSSRVPTGATTQDAEVDDAKYGFVASGTLNPQKARVLLQLALTQTKDPQQIQQIFNQY
notes: synthetic gene, N-terminal 6xHis-tag (pET28a or pMSCG92), expressed in E. coli BL21 (DE3) deltaansA/deltaansB; tetramer
Protein B4 has a Km [5] of 0.012 ± 0.002 mM, a kcat [5] of 39 ± 1 s⁻¹ and a kcat/Km [5] of 3.3e+06 ± 561000 M⁻¹ s⁻¹.
